Laboratory results taken from paper PMC9482650, “Quantitative fragmentomics allow affinity mapping of interactomes” (Nature Communications, 2022).

Legend:
Assay in all cases: holdup assay
Design in all cases: key: below the threshold = too weak to quantify, mostly under pKd 3.1 to 4
Details in all cases: plain residues with an end cap or a label only (N-terminal biotin on a linker: ado-ado)
[1] = molecular target: FRMPD2_3, Q68DX3
[2] = molecular target: T1, MPDZ_5, O75970
T1 sequence (O75970 695-796, limits assumed, looked up): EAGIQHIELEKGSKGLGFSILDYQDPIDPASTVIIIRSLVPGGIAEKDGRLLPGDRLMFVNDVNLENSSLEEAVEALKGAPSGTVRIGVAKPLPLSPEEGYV

[3] = molecular target: T2, TJP3_3, O95049
T2 sequence (O95049 375-456, limits assumed, looked up): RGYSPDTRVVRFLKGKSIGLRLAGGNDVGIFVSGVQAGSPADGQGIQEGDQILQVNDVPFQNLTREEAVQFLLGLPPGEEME

[4] = molecular target: T3, GRIP1_4, Q9Y3R0
T3 sequence (Q9Y3R0 467-571, limits assumed, looked up): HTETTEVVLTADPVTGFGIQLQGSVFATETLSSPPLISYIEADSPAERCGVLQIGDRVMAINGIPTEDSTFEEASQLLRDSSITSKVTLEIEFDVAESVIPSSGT

[5] = molecular target: T4, MPP7, Q5T2T1
T4 sequence (Q5T2T1 134-230, limits assumed, looked up): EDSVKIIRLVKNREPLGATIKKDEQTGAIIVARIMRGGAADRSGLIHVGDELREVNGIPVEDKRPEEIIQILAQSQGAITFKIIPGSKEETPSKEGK

[6] = molecular target: T5, PDZD2_2, O15018
T5 sequence (O15018 329-429, limits assumed, looked up): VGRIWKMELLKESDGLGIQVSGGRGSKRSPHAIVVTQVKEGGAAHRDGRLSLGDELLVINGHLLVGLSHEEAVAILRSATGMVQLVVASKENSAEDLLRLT

[7] = molecular target: T6, SYNJ2BP, P57105
T6 sequence (P57105 8-110, limits assumed, looked up): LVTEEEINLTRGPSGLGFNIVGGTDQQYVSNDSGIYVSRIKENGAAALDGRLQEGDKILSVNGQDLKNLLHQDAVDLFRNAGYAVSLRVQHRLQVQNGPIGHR

[8] = molecular target: MAGI1_2, Q96QZ7
[9] = molecular target: HTRA2, O43464
[10] = molecular target: T7, LRRC7, Q96NW7
T7 sequence (Q96NW7 1440-1537, limits assumed, looked up): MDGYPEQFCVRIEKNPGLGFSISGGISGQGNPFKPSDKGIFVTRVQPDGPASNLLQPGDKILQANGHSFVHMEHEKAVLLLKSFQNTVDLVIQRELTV

[11] = molecular target: SCRIB_2, Q14160
[12] = molecular target: T8, PDZD7_3, Q9H5P4
T8 sequence (Q9H5P4 857-944, limits assumed, looked up): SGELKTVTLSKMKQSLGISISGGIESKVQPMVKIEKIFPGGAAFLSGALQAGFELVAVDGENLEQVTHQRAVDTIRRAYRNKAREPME

[13] = molecular target: T9, APBA2_2, Q99767
T9 sequence (Q99767 654-744, limits assumed, looked up): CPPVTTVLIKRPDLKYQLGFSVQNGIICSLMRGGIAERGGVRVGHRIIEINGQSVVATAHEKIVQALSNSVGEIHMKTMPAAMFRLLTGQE

[14] = molecular target: LNX1_1, Q8TBB1
[15] = molecular target: T10, NHERF3_1, Q5T2W1
T10 sequence (Q5T2W1 4-100, limits assumed, looked up): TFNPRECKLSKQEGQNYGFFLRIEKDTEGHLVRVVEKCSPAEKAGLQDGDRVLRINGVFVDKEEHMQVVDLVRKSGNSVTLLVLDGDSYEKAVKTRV

[16] = molecular target: T11, MPP2, Q14168
T11 sequence (Q14168 180-250, limits assumed, looked up): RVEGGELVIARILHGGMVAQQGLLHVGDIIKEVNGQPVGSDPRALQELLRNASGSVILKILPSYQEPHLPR

[17] = molecular target: GORASP1, Q9BQQ3
[18] = molecular target: T12, RHPN1, Q8TCX5
T12 sequence (Q8TCX5 508-602, limits assumed, looked up): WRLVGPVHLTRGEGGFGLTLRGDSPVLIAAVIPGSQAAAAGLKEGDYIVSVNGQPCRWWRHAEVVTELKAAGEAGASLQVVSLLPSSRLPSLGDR

[19] = molecular target: T13, MPP6, Q9NZW5
T13 sequence (Q9NZW5 125-219, limits assumed, looked up): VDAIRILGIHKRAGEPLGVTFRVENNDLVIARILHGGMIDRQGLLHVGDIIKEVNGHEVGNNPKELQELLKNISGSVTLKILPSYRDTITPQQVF

[20] = molecular target: LNX1_2, Q8TBB1
[21] = molecular target: IL16_1, Q14005
[22] = molecular target: DLG1_1, Q12959
[23] = molecular target: GRIP2_6, Q9C0E4
[24] = molecular target: DLG4_3, P78352
[25] = molecular target: MAGI2_4, Q86UL8
Sequence of MAGI2_4, Q86UL8 (Q86UL8 772-865): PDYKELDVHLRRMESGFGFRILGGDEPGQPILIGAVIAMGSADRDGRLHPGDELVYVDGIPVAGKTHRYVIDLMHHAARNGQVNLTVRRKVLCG

Sequence of SCRIB_2, Q14160 (Q14160 857-960): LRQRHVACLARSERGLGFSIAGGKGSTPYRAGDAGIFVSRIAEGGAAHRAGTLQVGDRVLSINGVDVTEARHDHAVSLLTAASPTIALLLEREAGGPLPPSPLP
Sequence of HTRA2, O43464 (O43464 355-458): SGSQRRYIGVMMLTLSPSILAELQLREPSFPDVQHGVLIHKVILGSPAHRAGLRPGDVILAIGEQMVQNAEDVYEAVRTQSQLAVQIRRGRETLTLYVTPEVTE
Sequence of GRIP2_6, Q9C0E4 (Q9C0E4 648-740): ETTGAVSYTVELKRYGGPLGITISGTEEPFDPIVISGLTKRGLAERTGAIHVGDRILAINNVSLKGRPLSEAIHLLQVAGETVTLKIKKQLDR
Sequence of MAGI1_2, Q96QZ7 (Q96QZ7 456-580): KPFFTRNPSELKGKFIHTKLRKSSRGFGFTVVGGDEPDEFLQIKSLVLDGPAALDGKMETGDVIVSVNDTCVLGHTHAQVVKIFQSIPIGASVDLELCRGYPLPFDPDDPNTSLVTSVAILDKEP
Sequence of DLG4_3, P78352 (P78352 306-403): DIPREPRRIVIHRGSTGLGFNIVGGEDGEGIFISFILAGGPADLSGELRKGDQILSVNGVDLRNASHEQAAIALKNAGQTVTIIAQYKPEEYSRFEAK
Sequence of IL16_1, Q14005 (Q14005 210-306): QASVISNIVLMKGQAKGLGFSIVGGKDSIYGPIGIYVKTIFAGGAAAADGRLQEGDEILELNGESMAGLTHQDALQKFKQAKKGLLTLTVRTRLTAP
Sequence of LNX1_2, Q8TBB1 (Q8TBB1 371-470): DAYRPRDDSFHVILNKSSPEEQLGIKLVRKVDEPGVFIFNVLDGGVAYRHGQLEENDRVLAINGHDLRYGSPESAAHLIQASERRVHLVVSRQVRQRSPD
Sequence of GORASP1, Q9BQQ3 (Q9BQQ3 1-208): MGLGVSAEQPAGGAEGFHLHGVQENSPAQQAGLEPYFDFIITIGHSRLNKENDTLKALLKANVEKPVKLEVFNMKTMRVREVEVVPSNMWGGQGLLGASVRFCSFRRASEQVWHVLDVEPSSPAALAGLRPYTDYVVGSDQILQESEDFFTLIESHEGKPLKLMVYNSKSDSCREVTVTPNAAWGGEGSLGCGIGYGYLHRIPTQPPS
Sequence of FRMPD2_3, Q68DX3 (Q68DX3 1073-1166): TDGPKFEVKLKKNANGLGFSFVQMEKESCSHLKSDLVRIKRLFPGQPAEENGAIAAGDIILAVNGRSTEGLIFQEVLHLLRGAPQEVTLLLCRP
Sequence of LNX1_1, Q8TBB1 (Q8TBB1 261-371): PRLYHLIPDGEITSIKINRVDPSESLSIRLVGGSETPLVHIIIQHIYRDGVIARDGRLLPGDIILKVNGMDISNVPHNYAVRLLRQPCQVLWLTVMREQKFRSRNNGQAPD

Binder: AEASVACSLC [PTGIR, P43119]
- pKd [1]: below the threshold
- pKd [2]: below the threshold
- pKd [3]: below the threshold
- pKd [4]: below the threshold
- pKd [5]: below the threshold
- pKd [6]: 4.29
- pKd [7]: below the threshold
- pKd [8]: below the threshold
- pKd [9]: 3.78
- pKd [10]: below the threshold
- pKd [11]: below the threshold
- pKd [12]: 4.47
- pKd [13]: below the threshold
- pKd [14]: below the threshold
- pKd [15]: 4.51
- pKd [16]: below the threshold
- pKd [17]: below the threshold
- pKd [18]: below the threshold
- pKd [19]: below the threshold
- pKd [20]: 3.68
- pKd [21]: below the threshold
- pKd [22]: below the threshold
- pKd [23]: below the threshold
- pKd [24]: below the threshold
- pKd [25]: 3.72

Binder: DRIQSCLSDA [SBF1, O95248]
- pKd [1]: below the threshold
- pKd [2]: below the threshold
- pKd [3]: below the threshold
- pKd [4]: below the threshold
- pKd [5]: below the threshold
- pKd [6]: below the threshold
- pKd [7]: below the threshold
- pKd [8]: below the threshold
- pKd [9]: below the threshold
- pKd [10]: below the threshold
- pKd [11]: below the threshold
- pKd [12]: below the threshold
- pKd [13]: 3.48
- pKd [14]: 3.62
- pKd [15]: below the threshold
- pKd [16]: below the threshold
- pKd [17]: below the threshold
- pKd [18]: below the threshold
- pKd [19]: below the threshold
- pKd [20]: below the threshold
- pKd [21]: below the threshold
- pKd [22]: below the threshold
- pKd [23]: below the threshold
- pKd [24]: below the threshold
- pKd [25]: 3.7

Binder: LKDDELKTKL [SLCO1A2, P46721]
- pKd [1]: below the threshold
- pKd [2]: below the threshold
- pKd [3]: below the threshold
- pKd [4]: below the threshold
- pKd [5]: below the threshold
- pKd [6]: below the threshold
- pKd [7]: below the threshold
- pKd [8]: below the threshold
- pKd [9]: below the threshold
- pKd [10]: below the threshold
- pKd [11]: below the threshold
- pKd [12]: 4.43
- pKd [13]: below the threshold
- pKd [14]: 3.72
- pKd [15]: 4.87
- pKd [16]: below the threshold
- pKd [17]: below the threshold
- pKd [18]: 3.82
- pKd [19]: below the threshold
- pKd [20]: below the threshold
- pKd [21]: below the threshold
- pKd [22]: below the threshold
- pKd [23]: below the threshold
- pKd [24]: below the threshold
- pKd [25]: below the threshold
